T1: elongated peptide VKLGHPDTLNQ (Homo sapiens)
T1 construct: also called N-extended elongated version
T1 peptide: VKLGHPDTLNQ

T2: truncated peptide LGHPDTLNQ (Homo sapiens)
T2 construct: also called N-truncated shortened version
T2 peptide: LGHPDTLNQ

T3: non-sense peptide YRDDLKKLLET (Homo sapiens)
T3 construct: also called NBH-225
T3 peptide: YRDDLKKLLET

T4: full-length human calprotectin (heterodimer of S100A9 and S100A8) (Homo sapiens, UniProt P06702 1-114; P05109 1-93)
T4 construct: also called intact full-length human calprotectin; purified calprotectin
T4 sequence (looked up) 1: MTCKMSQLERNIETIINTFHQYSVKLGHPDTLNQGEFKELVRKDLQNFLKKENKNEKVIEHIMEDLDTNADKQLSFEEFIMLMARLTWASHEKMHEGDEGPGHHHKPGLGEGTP
T4 sequence (looked up) 2: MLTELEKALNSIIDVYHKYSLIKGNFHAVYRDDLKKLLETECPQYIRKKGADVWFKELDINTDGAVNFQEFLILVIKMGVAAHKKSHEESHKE

T5: human neutrophil elastase (human, UniProt P08246 30-247, limits assumed)
T5 construct: also called HNE
T5 sequence (looked up): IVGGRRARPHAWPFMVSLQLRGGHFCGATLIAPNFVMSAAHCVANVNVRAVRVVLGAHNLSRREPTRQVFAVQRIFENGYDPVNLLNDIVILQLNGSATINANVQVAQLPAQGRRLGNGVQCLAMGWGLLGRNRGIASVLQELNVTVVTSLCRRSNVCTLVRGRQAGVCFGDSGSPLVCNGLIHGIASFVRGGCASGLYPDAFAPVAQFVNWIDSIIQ

B1: CPa9-HNE antibody (antibody, mouse IgG1, kappa, V domains shown)
VH: QVQLQQSGPELVKPGASVKMSCKASGYTFTDHVINWVRQRTGQGLEWIGEIYPGSGSTYYNEKFKGKATLTADKSSNTAYMQLSSLTSEDSAVYFCAWFAYWGQGTLVTVSA
VL: DIVMTQSPSSLSVSAGEKVTMSCKSSQSLLNSGNQKNYLAWYQQKPGQPPKLLIYGASTRESGVPDRFTGSGSGTDFTLTISSVQAEDLAVYYCLNDHSYPYTFGGGTKLEIKR
notes: also called monoclonal antibody targeting CPa9-HNE
B2: selection peptide KLGHPDTLNQ (peptide)
peptide: KLGHPDTLNQ
notes: also called calibrator peptide

Experiments:
[1] = target: B2; test: competitive ELISA (CPa9-HNE assay), peptide specificity test, FIG. 2B
Procedure: (§1) No. 11940279, Hvidovre, Denmark) were coated with a biotinylated antigen ([…]-K-Biotin (SEQ ID NO: 27)) by incubation with the biotinylated antigen for 30 minutes at room temperature. Unbound biotinylated coater antigen was discarded, and the wells were washed with washing buffer (25 mM TRIZMA, 50 mM NaCl, 0.036% Bronidox L5, 0.1% Tween 20) using a standardized ELISA plate washing machine (BioTek® Instruments, Microplate washer, ELx405 Select CW, Winooski, USA). Samples were diluted in incubation buffer containing 1% bovine serum albumin (Sigma Aldrich, cat. No. a-7906, 98 purity) to maintain protein stability and for blocking. Samples and controls were added to the wells and incubated with the primary monoclonal antibody against the HNE-generated neo-epitope (CPa9-HNE), at 20° C. for 1 hour and agitated at 300 rpm. Unbound primary antibody and sample were discarded, and the wells were washed with washing buffer. Subsequently, HRP conjugated AffiniPure Rabbit anti-mouse IgG secondary antibodies (Jackson cat. No 315-035-045) was added to the wells and incubated for 1 hour at 20° C. Unbound secondary antibody was discarded by washing the wells in washing buffer. Chemiluminescence substrate (Roche Diagnostic's cat. No. 11582950001) was added to the well (100 μl/well), and the plates were incubated for 3 minutes at room temperature before reading the plates. Finally, an ELISA reader (VersaMAX; Molecular Devices, Wokingham Berkshire, UK) was used to quantify the relative light units (RLU) emitted from the plates […]. A standard curve was plotted using a 4-parametric mathematical fit model.
(§2) A monoclonal antibody (also referred to herein as the CPa9-HNE antibody) targeting CPa9-HNE (the HNE-generated N-terminus neo-epitope of NBH-222) was developed and used in an ELISA protocol as described above (also referred to hereinafter as the CPa9-HNE assay), and the specificity of this antibody when used in this immunoassay was tested against the selection peptide and the elongated peptide, truncated peptide and non-sense peptide (having the sequences set out in Table 1).

[2] = target: T1, elongated peptide VKLGHPDTLNQ; test: as above
Procedure: as §1, §2

[3] = target: T2, truncated peptide LGHPDTLNQ; test: as above
Procedure: as §1, §2

[4] = target: T3, non-sense peptide YRDDLKKLLET; test: as above
Procedure: as §1, §2

[5] = target: T4, full-length human calprotectin …; test: competitive ELISA (CPa9-HNE assay) on in vitro cleavage samples and controls, FIG. 2C
Procedure: (§3) Samples were diluted in incubation buffer containing 1% bovine serum albumin (Sigma Aldrich, cat. No. a-7906, 98 purity) to maintain protein stability and for blocking. Samples and controls were added to the wells and incubated with the primary monoclonal antibody against the HNE-generated neo-epitope (CPa9-HNE), at 20° C. for 1 hour and agitated at 300 rpm. Unbound primary antibody and sample were discarded, and the wells were washed with washing buffer. Subsequently, HRP conjugated AffiniPure Rabbit anti-mouse IgG secondary antibodies (Jackson cat. No 315-035-045) was added to the wells and incubated for 1 hour at 20° C. Unbound secondary antibody was discarded by washing the wells in washing buffer. Chemiluminescence substrate (Roche Diagnostic's cat. No. 11582950001) was added to the well (100 μl/well), and the plates were incubated for 3 minutes at room temperature before reading the plates. Finally, an ELISA reader (VersaMAX; Molecular Devices, Wokingham Berkshire, UK) was used to quantify the relative light units (RLU) emitted from the plates […]. A standard curve was plotted using a 4-parametric mathematical fit model. […]

[6] = target: T5, human neutrophil elastase; test: as above
Procedure: as §3

CPa9-HNE antibody = target: B1; test: competitive ELISA: standard (calibrator) peptide in solution competes with …-K-Biotin on streptavidin plates for the CPa9-HNE antibody; mean of the standard curves

Row | Binder | binding result [1] | binding result [2] | binding result [3] | binding result [4] | binding result [5] | binding result [6] | IC50 (CPa9-HNE antibody)
1 | B1 | binds | no binding | no binding | no binding | no binding | no binding | –
2 | B2 | – | – | – | – | – | – | 0.0783 µg/mL

Reference: patent US20230184787A1 (NORDIC BIOSCIENCE A S, published 2023)
